Assay results published in the supplement of paper PMC9170038.

Tested on: MS2 coat protein
Experiment: apparent KD of MS2 coat protein; designed switch direction (-1 OFF switch, 1 ON switch): -1; higher = weaker reporter binding
How it was run: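 Stalled E. coli RNA polymerase transcribed designed RNA switches on Illumina chips, which were then titrated with SNAP-549-labelled MS2 coat protein, doubling from 0.7 or 1.5 nM to 3 µM. Steps lasted from 0.8–1.5 h at the lowest concentration to 10–20 min at the highest. The apparent KD is each design's median over clusters of curve-fitted normalised fluorescence.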

[1] = Eterna round: R95, input ligand: FMN 200 uM
[2] = Eterna round: R95, input ligand: microRNA oligo, concentration not stated
[3] = Eterna round: R95, input ligand: none
[4] = input ligand: microRNA oligo, concentration not stated

Sequence	apparent KD of MS2 coat protein [1] [nM]	apparent KD of MS2 coat protein [2] [nM]	apparent KD of MS2 coat protein [3] [nM]	apparent KD of MS2 coat protein (input ligand: FMN 200 uM) [nM]	apparent KD of MS2 coat protein (input ligand: none) [nM]	apparent KD of MS2 coat protein [4] [nM]
UAGAUGCUCAGGGAGUGUGACAUGAGGAUCACCCAUGUGGUGGUAGGGAACAAGCUUUUUGCACGUACUUAUGAGUA [JR_SV3TOV1_Sub007] (puzzle: Sensor v3, turn-off variant 1)	64.9	18.3	117	–	–	–
CGGGUUCGUGUUAGGAUAUGCACGCACCCGUAGCGGCAGAAGGAACAUGAGGAUCACCCAUGUGAAUAAGAAAA [BmEX4 A.3] (Eterna round: R97, puzzle: Brourd's mod of Exclusion 4)	–	–	–	18.3	15.5	–
CAAUGAGGAGUGAGGAUAUCGUGUUCGAAAGAACGUGAGAAGGCACAUGAGGAUCACCCAUGUGAUCCUCAUUG [Omei Ex4B A24] (Eterna round: R97, puzzle: Brourd's mod of Exclusion 4)	–	–	–	98.2	53.3	–
GCGGGAUAGCAAGGAUAUCCCGAGUCGCAAGGAAACAUCCACAUGAGGAUCACCCAUGUGGCUCUGGAGAAGGUGCGACGCAAA [Onveceanti] (Eterna round: R96, puzzle: Exclusion NG 2)	–	–	–	10.3	13.4	9.8
UUUUAACAUGAGGAUCACCCAUGUGAGGAUAUCGAAAUUUAUAUUUAUAUUUAUUAAACGAGAAGGCACAUUUU [JMF 99] (puzzle: Exclusion 1)	–	66.9	–	–	–	–
AGCUGUGGCCGAGGAUAUCCACAUGAGGAUCACCCAUGUGAAUAGGGAAUUAACCCAUAACCGUGGGAGAAGGCGGUCUCAGCA [Eli eng2 - 049] (Eterna round: R96, puzzle: Exclusion NG 2)	–	–	–	55.1	82.1	48.6
CUUUUGUGAGGAUAUUAGUAGUUUAUAAUUAAAAUUAUUACUGAGAAGGCACAUGAGGAUCACCCAUGUAAAAC [JR_Ex4_Sub029] (Eterna round: R97, puzzle: Exclusion 4)	–	–	–	122	104	–
AGCUGUGGCCGAGGAUAUACACAUGAGGAUCACCCAUGUAGGCGCGGAUACGCGCUAAAAUAAUUGUAGAAGGCGGUCUCAGCA [Eli eng2 - 054] (Eterna round: R96, puzzle: Exclusion NG 2)	–	–	–	3.88	10.6	5.92
AGUCCUGGAGUUAGGAUAUGGUGUAUCGCUGCGCUUCAGAAGGGACUUGAGGAUCACCCAAGUAGCCGUGAGGG [salish99_bmod_ex4_r4_007] (Eterna round: R97, puzzle: Brourd's mod of Exclusion 4)	–	–	–	49.9	60.2	–
UUUUACAUCUAUGGGAGUGACAUGAGGAUCACCCAUGUAUGUCUUGUUUUUUGUUCGUCUAGGACUUUCUGAUCAGU [JR_SV3TOV1_Sub033] (puzzle: Sensor v3, turn-off variant 1)	565	222	730	–	–	–
UUAUAGUAUGUAGGAUAUCGGUCAGUUUCUGAUCGAGAAGGACAUGAGGAUCACCCAUGUAAGGCUACCGGUUUCUGGUGGCCU [JL ENG1 3.52] (Eterna round: R96, puzzle: Exclusion NG 1)	–	–	–	94.4	20.9	18.5
UCAGUUAUGCGAGGAUAUCGACCUUUCCUCUUAACAUGAGGAUCACCCAUGUGCUAAUCCUUCAACGAGAAGGCGCUCAAACUC [JR_ExcNG2_Sub070] (Eterna round: R96, puzzle: Exclusion NG 2)	–	–	–	260	209	170
UACAUGUGAGGAUAUUAGUAGUAAAUAAAUAAAAUUAUUACUGAGAAGGUACAUGAGGAUCACCCAUGUUCCUU [Salish 062 v23] (Eterna round: R97, puzzle: Exclusion 4)	–	–	–	17.5	12.7	–
AGUACUAUCACGAAAGUGAUAGUACAAUGAGCUUUUGAAACAUGAGGAUCACCCAUGUCCUCAUAAGCUCGUCUUAU [JL turnoff v2 52] (Eterna round: R96, puzzle: Sensor v2, turn-off variant 2)	–	–	–	17.4	18.9	123
CUCUUGUCAGGAUAUCUAAGCUGCCUCCCGGUAGCCGAAUUAGAGAAGGGACAUGAGGAUCACCCAUGUAAAAG [Qubile] (puzzle: Exclusion 4)	58.3	160	280	–	–	–
AUGGGACAUGAGGAUCACCCAUGUCAGGAUAUGCUCUGAUGCGGCGUACGCCGUGCUAGCAGAAGGGACUACCU [EX1 C.19] (Eterna round: R97, puzzle: Exclusion 1)	–	–	–	29	28	–

Sequence	apparent KD of MS2 coat protein [1] [nM]	apparent KD of MS2 coat protein [2] [nM]	apparent KD of MS2 coat protein [3] [nM]	apparent KD of MS2 coat protein (input ligand: FMN 200 uM) [nM]	apparent KD of MS2 coat protein (input ligand: none) [nM]	apparent KD of MS2 coat protein [4] [nM]
ACAUAUGUUAGAGGAUCCUACAUGAGGAUCACCCAUGUCGGUAUAAAACUCACACGGUCAACGCUUUUUGUUCGCUA [Eternabot (L1) Solution 2] (Eterna round: R97, puzzle: Sensor, turn-off variant 1)	–	–	–	30.5	34.7	–
ACACAGCGAGGAUAUACAUGAGGAUCACCCAUGUGGUGGCAGUUACGGUAGGACUAGUGUAGAAGGUGCCGUGG [EX3 #28] (Eterna round: R97, puzzle: Exclusion 3)	–	–	–	600	588	–
UAUUUAUAUGAAGGAUAUACUUAACAUGAGGAUCACCCAUGUGGUGUUGUGAGUGAGUGAGUUUAGUAGAAGGUCAAUUAUUUU [JMF's solution 30] (Eterna round: R96, puzzle: Exclusion NG 2)	–	–	–	282	222	131
CGUAAGCUAGGAUAUGCUUUGGGAAAGCAUUCCUUCGAUAAACUUGAGGAUCACCCAAGUAGAAGGAGCUUACU [salish99_ex2_r4_011] (Eterna round: R97, puzzle: Exclusion 2)	–	–	–	19.5	12.5	–
AAAAGGCGAGGAUAUCCGGGCACGGACAUGAGGAUCACCCAUGUGACCUCGCCCGGCGGAGGAGAAGGCGCCGAAG [Biestein] (Eterna round: R97, puzzle: Exclusion 5)	–	–	–	368	158	–
UUGUUGUGUGUAGGAUAUGCGUAUUAUUAUUAUGCAGAAGGACAUGAGGAUCACCCAUGUGUAUUAUUAUUAUAUAUUAUAUAU [Title] (Eterna round: R96, puzzle: Exclusion NG 1)	–	–	–	43.3	25	21.8
UUAAUUAAUUGCGCAAGAUCACAUGAGGAUCACCCAUGUAUAUAGGAUAUCAGCUCGUGUAGAGCUGAGAAGGAUAUACAGCGC [ExNG3/3-A3] (Eterna round: R96, puzzle: Exclusion NG 3)	–	–	–	886	495	419
UGUUGUUACGCAGGAUAUGAGGAUCACCCAUAUUAGGAUAUCGAAAGAGAAUUUCUGAGGAUCACCCAGAAGGGCGGGUUAACA [pwkr exNG2 2xF5 2xFMN.36] (Eterna round: R96, puzzle: Exclusion NG 2)	–	–	–	118	47.3	38.5
GGUAUGGCCACAGGAUAUUGAGCCACAUGAGGAUCACCCAUGUGAGGACGUAGAAUCGCCUGGCCCAAGAAGGGUGAAGCCCAU [Eternabot solution 4] (Eterna round: R96, puzzle: Exclusion NG 2)	–	–	–	17.1	28	13.1
UUUUUCUCAGGAUAUACAUGAGGAUCACCCAUGUAUAUUAAUGGUAAUACAUGGGAAUGUAGAAGGGAGCUCAU [Omei Ex3 Pseudoloop 15] (Eterna round: R97, puzzle: Exclusion 3)	–	–	–	112	122	–
AGCCAAGCAGGAUAUAUCCGGGAUAACAUGAGGAUCACCCAUGUGACCGAUUGAUGUCCUAUAGAAGGGCUUGGGA [Mod of ViennaUCT 22 - Jieux - Exclusion 5] (Eterna round: R97, puzzle: Exclusion 5)	–	–	–	176	43.5	–
AAGAAACAUGAGGAUCACCCAUGUGAGGAUAUGAGCAAGAAAAGAAAAGAAAGAAGAAUCAGAAGGCACAAAGG [salish99-ex1_r3_050] (puzzle: Exclusion 1)	6990	1.1	49.3	–	–	–
CUUUCGUGAGGAUAUGUGGCUAAAAUCGUGAGAUCGAGGCUACAGAAGGCACAUGAGGAUCACCCAUGUUCCUC [salish99_ex4_r4_212] (Eterna round: R97, puzzle: Exclusion 4)	–	–	–	379	38.3	–
UGCGUUUGAGGAUAUACGUAGAAAUAGAUUCAUGUAAAACUACAUGAGGAUCACCCAUGUAGAAGGCAAGCGCU [Mat - Exclusion 2 - JL Mod - D39] (Eterna round: R97, puzzle: Exclusion 2)	–	–	–	239	26.4	–
GCUUUUGGGCAAGGAUAUCCUGCGCUGUUCUGGUUCGUGUCUGUCACAUGAGGAUCACCCAUGUGGGAGAAGGUGCCUGUGGUG [Design 70] (Eterna round: R96, puzzle: Exclusion NG 2)	–	–	–	17	19.2	14.7
AAUGAUUGACGAGGAUAUUGUGUUAGAUCACGACGAGAAGGCGUCUGUCACAUGAGGAUCACCCAUGUGAGCCUGGUGGAUAGA [Ex NG1 #78] (Eterna round: R96, puzzle: Exclusion NG 1)	–	–	–	82.6	50	35.1
